In IntAct's records for PubMed 17064696:

B1: Sphingosine kinase 1 (Homo sapiens), Q9NYA1 (parent)
chain: MDPAGGPRGVLPRPCRVLVLLNPRGGKGKALQLFRSHVQPLLAEAEISFTLMLTERRNHARELVRSEELGRWDALVVMSGDGLMHEVVNGLMERPDWETAIQKPLCSLPAGSGNALAASLNHYAGYEQVTNEDLLTNCTLLLCRRLLSPMNLLSLHTASGLRLFSVLSLAWGFIADVDLESEKYRRLGEMRFTLGTFLRLAALRTYRGRLAYLPVGRVGSKTPASPVVVQQGPVDAHLVPLEEPVPSHWTVVPDEDFVLVLALLHSHLGSEMFAAPMGRCAAGVMHLFYVRAGVSRAMLLRLFLAMEKGRHMEYECPYLVYVPVVAFRLEPKDGKGVFAVDGELMVSEAVQGQVHPNYFWMVSGCVEPPPSWKPQQMPPPEEPL

Variants of: B1
Details: with catb_human CTSB

Row | Variant | effect of a mutation on the interaction
1 | MDPAGGPRGVLPRPCRVLVLLNPRGGKGKALQLFRSHVQPLLAEAEISFTLMLTERRNHARELVRSEELGRWDALVVMSGDGLMHEVVNGLMERPDWETAIQKPLCSLPAGSGNALAASLEHYAGYEQVTNEDLLTNCTLLLCRRLLSPMNLLSLHTASGLRLFSVLSLAWGFIADVDLESEKYRRLGEMRFTLGTFLRLAALRTYRGRLAYLPVGRVGSKTPASPVVVQQGPVDAHLVPLEEPVPSHWTVVPDEDFVLVLALLHSHLGSEMFAAPMGRCAAGVMHLFYVRAGVSRAMLLRLFLAMEKGRHMEYECPYLVYVPVVAFRLEPKDGKGVFAVDGELMVSEAVQGQVHPNYFWMVSGCVEPPPSWKPQQMPPPEEPL [N121E] | decreasing interaction

Variants of: B1
Details: with catb_human CTSB
Remark: another data set of the same source

Row | Variant | effect of a mutation on the interaction
2 | MDPAGGPRGVLPRPCRVLVLLNPRGGKGKALQLFRSHVQPLLAEAEISFTLMLTERRNHARELVRSEELGRWDALVVMSGDGLMHEVVNGLMERPDWETAIQKPLCSLPAGSGNALAASLNHAAGYEQVTNEDLLTNCTLLLCRRLLSPMNLLSLHTASGLRLFSVLSLAWGFIADVDLESEKYRRLGEMRFTLGTFLRLAALRTYRGRLAYLPVGRVGSKTPASPVVVQQGPVDAHLVPLEEPVPSHWTVVPDEDFVLVLALLHSHLGSEMFAAPMGRCAAGVMHLFYVRAGVSRAMLLRLFLAMEKGRHMEYECPYLVYVPVVAFRLEPKDGKGVFAVDGELMVSEAVQGQVHPNYFWMVSGCVEPPPSWKPQQMPPPEEPL [Y123A] | decreasing interaction

Variants of: B1
Details: with catb_human CTSB
Remark: another data set of the same source

Row | Variant | effect of a mutation on the interaction
3 | MDPAGGPRGVLPRPCRVLVLLNPRGGKGKALQLFRSHVQPLLAEAEISFTLMLTERRNHARELVRSEELGRWDALVVMSGDGLMHEVVNGLMERPDWETAIQKPLCSLPAGSGNALAASLNYYAGYEQVTNEDLLTNCTLLLCRRLLSPMNLLSLHTASGLRLFSVLSLAWGFIADVDLESEKYRRLGEMRFTLGTFLRLAALRTYRGRLAYLPVGRVGSKTPASPVVVQQGPVDAHLVPLEEPVPSHWTVVPDEDFVLVLALLHSHLGSEMFAAPMGRCAAGVMHLFYVRAGVSRAMLLRLFLAMEKGRHMEYECPYLVYVPVVAFRLEPKDGKGVFAVDGELMVSEAVQGQVHPNYFWMVSGCVEPPPSWKPQQMPPPEEPL [H122Y] | decreasing interaction
